2 molecules from patent publication US6924101B2, “Methods for identifying anti-microbial agents” (priority 1997, dated 2005) can be followed below.

Data set [1] relates to E. coli DH5α. The data set can be described thus: Growth curves (OD450) in liquid LB media with or without 1 mM IPTG (FIG. 7). It is filed as cell-based. Here is the method:
FIG. 7 is a graph showing growth curves of E. coli DH5α containing pJB37, pJB57 and pJB59 in liquid media in the presence and absence of IPTG.
Inhibition of bacterial growth after IPTG induction. Growth curves were carried out by back diluting cultures 1:20 into fresh media with or without 1 mM IPTG and measuring the OD450 every 30 minutes (min). To study transcriptional induction in exponential phase, cultures were diluted 1:10^6 or as indicated. The viability (CFU/ml) was determined over time by plating aliquots of the culture on agar with or without IPTG.
Kinetics of inhibition during exponential growth by antisense RNA. The kinetics of antisense inhibition was examined for strains carrying pJB37, pJB53, pJB57 or pJB59. Overnight cultures of each strain were diluted 1:20 into LB media containing 1 mM IPTG or LB media without IPTG. The OD450 was then measured on the liquid cultures. […] After induction of antisense RNA expression, a few generations of cell division presumably are required in order to dilute endogenous gene product present at the initiation of induction.

A further data set has as its system JRG58201. The data set can be described thus: Growth and viability of ampG null strain after IPTG induction. The format is cell-based, E. coli. From the text: Lethality of pJB59 antisense RNA requires inhibition of orf1. The polycistronic mRNA that encodes ampG in E. coli has an upstream ORF, termed orf1 herein: The antisense RNA made by pJB59 is complementary to orf1. In order to determine whether translational inhibition of orf1 or of ampG was the cause of the lethality of pJB59 antisense RNA, pJB59 was transformed into the ampG null strain, JRG58201. Jacobs, C., et al, EMBO J. 13:4684-4694 (1993). JRG58201 has a defect in the ampG gene but has no known defect in the orf1 gene.

Data set [2] concerns E. coli DH5α. The data set can be described thus: Viability (CFUs/ml) over time after induction of antisense RNA expression (FIG. 8). It is filed as cell-based. Here is the method: FIG. 8 is a graph showing the viability of DH5α strains at various times after induction of antisense RNA expression. Strains contained the following plasmids: squares: pJB37; diamonds: pJB53; circles: pJB57; and triangles; pJB59.
Inhibition of viability by antisense RNA. The viability over time of the four strains expressing the antisense RNAs described above was also examined. Overnight cultures of each strain were diluted 1:100 into LB medium containing 1 mM IPTG. Aliquots of each culture were plated on LB agar containing ampicillin at intervals thereafter to determine CFUs/ml.

The subject of data set [3] is E. coli DH5α. The data set can be described thus: Colony formation on M9 agar with or without 1 mM IPTG (FIG. 6). The format is cell-based. Conditions: M9 agar containing 1 mM IPTG vs without IPTG. Here is the method: FIG. 6 is a bar graph showing the effect of inducing lepB, ddlB, viaA or orf1 antisense RNA expression on colony formation in E. coli DH5α. Striped bars indicate colony forming units (CFUs) per ml of culture for strains grown on semi-solid media in the absence of the inducer IPTG. Solid bars indicate CFUs/ml for strains grown in the presence of IPTG.
Cell proliferation for each strain was measured by diluting overnight cultures 1:10^6 into M9 medium. After growth to an OD450 of 0.2, aliquots of each culture were plated on M9 agar without IPTG or M9 agar containing 1 mM IPTG. […] Colony formation by cells carrying pJB57 was inhibited more than 100 fold. The colony formation of strains carrying pJB59 was inhibited more than 1000 fold.

A further data set has as its system Salmonella typhimurium. The data set can be described thus: Growth of transformants plated on LB with or without 1 mM IPTG. It is filed as cell-based. Here is the method: In order to examine the effectiveness of the antisense RNAs in a related species, Salmonella typhimurium was transformed with pJB37 or pJB53. The ampicillin-resistant transformants were plated on LB with or without 1 mM IPTG.

The subject of data set [4] is E. coli DH5α. The data set can be described thus: Effect of different concentrations of inducer IPTG on viability (FIG. 9). The format is cell-based. Here is the method:
FIG. 9 is a graph showing the effect of varying concentrations of inducer on the viability of DH5α containing pJB37 (panel A) or pJB53 (panel B).
Effect of different concentrations of transcriptional inducer. Experiments were carried out to determine the effect of different concentrations of the inducer IPTG on bacterial growth and viability with the two clones where antisense RNA is bacteriocidal. Overnight cultures were diluted 1:100 into LB media containing 0, 10, 100 500 or 1000 micro molar (μM) IPTG. At the time of induction and every 2 hours thereafter, aliquots were plated on LB/ampicillin agar to determine CFUs/ml.

B1: pJB59: pLEX5BA with a 451 bp EcoRI/BamHI fragment of orf1/ampG in antisense orientation; expresses antisense RNA (SEQ ID NO: 7) (nucleic acid)
antisense: GAAUUCGUGGAUGCUGGUGUCCUGAGACAUAUCAGCGAUGGUAUCGGUCAGCACACUGUUAACCGCAUCGGCGAUAUUUUUGUUGGAGGCCUGGAACGCACCUUCAACGUUGUAGCUGGCACGAUAGUUUUUGGUCAUUUUGUUGCCAUUCUGCGCGGUAGCGAUGAUGGCGAUAUCCGCUUUGGUCGCGAUGUUGUAGCGCACGUUGCCCUGGGACACGUCAGCAUACAGUUGGCUAACGAUGAUUUGCAGAUUAACCGGGCCAUUCGGACCAACCAUGUAACCACGCGCGGUCAUCUGUUUUUCCAGCACUUCUUGCAGCAGGAAACGCAGAUCGCGGGAGGCGGUCAGGGUAACGAUUUGAUUAUCGCGGGUGACUUUUGCCAGCGCCUGAUCGGUACGCUGAUCGGCACCAUUAAUGCUUACGGUGACGCCCAUCAGGCUUGGAUCC
modifications: expressed from plasmid pLEX5BA; Escherichia coli ampG
For B1, in the data set with E. coli DH5α [1] (LB, 1 mM IPTG), the “time after induction until significant effect on the increase in cell mass (OD450)” value was “about 3 hours” and the “time after which cell mass stopped increasing (did not decrease)” value was “about 3 hours”. The “growth and viability after IPTG induction” value in the data set with JRG58201 is on record as “inhibited”. Besides, the bacteriocidal or bacteriostatic result in the data set with E. coli DH5α [2] is reported as “bacteriostatic”. The “growth and viability when antisense RNA is expressed” value in the data set with E. coli DH5α [2] (1 mM IPTG, LB) is listed as “growth is inhibited but viability is not reduced”. Moreover, in the data set on E. coli DH5α [3], the “inhibition of colony formation” value is given as “more than 1000 fold”.

B2: pJB53: pLEX5BA with a 714 bp PstI/HindIII fragment of viaA in antisense orientation; expresses antisense RNA (SEQ ID NO: 4) (nucleic acid)
antisense: CUGCAGGCUGAGGUGUUGCCCUUACAAAUGCAACAACGACAUGGAUUACAACACCCUCAUAAACAAAGGGCAAUCACCUGAUCUAAGCUCUUACCUAUGACAGUGAUAGGUUAUGCCUUUUACUCGACUUUUGCACUGACUGAAAAGGACAAAUUAAUGUUAAAAAAGAUACUUUUACUGGCUCUGCUUCCUGCAAUCGCCUUCGCAGAGGAACUUCCUGCUCCAGUAAAAGCGAUUGAAAAACAGGGCAUUACAAUCAUCAAAACAUUCGAUGCCCCCGGAGGAAUGAAAGGUUAUCUCGGAAAGUAUCAGGAUAUGGGCGUCACCAUCUACCUGACUCCAGAUGGUAAGCACGCUAUCUCUGGUUACAUGUACAACGAGAAAGGUGAAAACCUGAGUAACACACUUAUCGAAAAAGAAAUUUACGCACCAGCCGGACGCGAAAUGUGGCAACGGAUGGAACAAUCCCACUGGCUCCUCGACGGUAAAAAAGAUGCGCCGGUCAUUGUCUACGUCUUCGCCGAUCCGUUCUGCCCAUAUUGUAAACAGUUCUGGCAGCAGGCGCGCCCGUGGGUAGAUUCUGGCAAAGUGCAAUUAAGAACAUUGUUGGUUGGGGUUAUCAAGCCAGAAAGCCCGGCGACAGCAGCGGCAAUUCUUGCCUCCAAAGAUCCCGCAAAAACCUGGCAACAAUAUGAAGCCUCUGGUGGCAAGCUU
modifications: expressed from plasmid pLEX5BA; Escherichia coli viaA
For the molecule B2, the “time at which cell mass began to decrease” value in the data set on E. coli DH5α [1] (LB, 1 mM IPTG) was “about 4 hours”. Besides, in the data set with E. coli DH5α [1] (after induction of antisense RNA), the “cell lysis, microscopic examination” value is “did not”. Besides, the “growth after induction of the antisense RNA” value in the data set on Salmonella typhimurium is given as “greatly inhibited”. In addition, the bacteriocidal or bacteriostatic result with E. coli DH5α [2] was “bacteriocidal”. The reduction of viability result in the data set with E. coli DH5α [2] (6 hours after induction, 1 mM IPTG, LB) is reported as “about 3 logs”. Also, in the data set on E. coli DH5α [4] (10 μm IPTG), the “effect on colony forming ability” value is reported as “minimal effect”. Also, in the data set with E. coli DH5α [4] (500 μm IPTG), the anti-proliferative effect result was “near maximal”. Also, the “effect on the time of cell death of a 2 fold increase of IPTG” value with E. coli DH5α [4] (1000 μm IPTG) is “little effect”. Further, in the data set on E. coli DH5α [3], the “effect on cell growth or colony formation when induced with IPTG” value is on record as “unable to form colonies”.
